Measurements published in US20250019439A1 (Adimab, published 2025).

B1: ADI-34146 (antibody, V domains shown)
VH: EVQLLESGGGLVQPGGSLRLSCAASGFTFSSYAMSWVRQAPGKGLEWVSTISGSGGSTYYADSVKGRFTISRDNSKNTLYLQMNSLRAEDTAVYYCARLGGRRGSGSSYYYYYGMDVWGQGTTVTVSS
VL: not shown
notes: anti-ID IgG
B2: ADI-34135 (antibody, V domains shown)
VH: QVQLVQSGAEVKKPGSSVKVSCKASGGTFSSYAISWVRQAPGQGLEWMGGIIPIFGTANYAQKFQGRVTITADESTSTAYMELSSLRSEDTAVYYCARGAPNYYGSGGYDDGWFDPWGQGTLVTVSS
VL: EIVMTQSPGTLSLSPGERATLSCRASQSVSSSYLAWYQQKPGQAPRLLIYGASSRATGIPDRFSGSGSGTDFTLTISRLEPEDFAVYYCQQFGRYPTFGGGTKVEIK
notes: anti-ID IgG

Key:
[1] = target: T1, CTL-62227; assay: SPR Carterra, yeast anti-ID
T1 construct: also called odronextamab
Experimental: (§1) Kinetic analysis was conducted at 25° C. in an HBSTE running buffer system (Carterra Cat #3630) using a Carterra LSA (Carterra USA, Salt Lake City, UT). The sample compartment was maintained at 20° C. for the duration of each experiment.
(§2) For antibody capture experiments, a goat anti-human Fc antibody (Jackson ImmunoResearch) was covalently coupled to an HC30M sensor chip surface via standard amine coupling (1:1 EDC:NHS) and then blocked with ethanolamine (1.0 M, pH 8.5). Covalent coupling steps were performed in 25 mM MES buffer (Carterra, Cat #3625) plus 0.05% Tween20. The anti-CD3 antibodies (100 nM in running buffer) were flowed over discrete regions of interest on the chip surface for 5 minutes. […] Dissociation of the anti-idiotype antibodies was monitored for 300s. Several blank buffer samples were injected over the entire chip surface at the start of each non-regenerative kinetic cycle. The preceding blank buffer injection was used for blank surface subtraction. At the end of each non-regenerative kinetic cycle, all surfaces were regenerated via two 30s injections of 10 mM glycine, pH 1.7.
(§3) For data processing and fitting, sensorgrams were double reference subtracted with a baseline drift correction of 4 RU. Sensorgrams were y-aligned and baseline corrected, filtered and cropped to include only the association and dissociation steps. Data was fitted to a 1:1 binding model using Carterra Kinetics Data Analysis software version 1.7.1.3055.

[2] = target: T2, CTL-62228; assay: SPR Carterra, yeast anti-ID
T2 construct: also called glofitamab
Experimental: as §1, §2, §3

[3] = target: T3, CTL-62240; assay: SPR Carterra, yeast anti-ID
T3 construct: also called ONO-4685
Experimental: as §1, §2, §3

[4] = target: T4, ADI-50024; assay: SPR Carterra avidity, yeast anti-ID
T4 construct: anti-CD3 antibody made in CHO cells, captured by anti-human Fc
T4 sequence (VH, as listed by the source limits assumed, chain 1 of 2): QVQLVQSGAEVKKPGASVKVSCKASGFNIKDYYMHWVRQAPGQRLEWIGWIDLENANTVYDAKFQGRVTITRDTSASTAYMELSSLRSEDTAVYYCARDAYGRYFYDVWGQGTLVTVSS
T4 sequence (VL, as listed by the source limits assumed, chain 2 of 2): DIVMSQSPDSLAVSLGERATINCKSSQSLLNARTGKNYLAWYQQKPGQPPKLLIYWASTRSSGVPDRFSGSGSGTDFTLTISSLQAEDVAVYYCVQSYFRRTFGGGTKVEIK
Experimental: as §1, §2, §3

[5] = target: T5, ADI-70326; assay: SPR Carterra avidity, yeast anti-ID
T5 construct: anti-CD3 antibody made in CHO cells, captured by anti-human Fc
T5 sequence (VH, as listed by the source limits assumed, chain 1 of 2): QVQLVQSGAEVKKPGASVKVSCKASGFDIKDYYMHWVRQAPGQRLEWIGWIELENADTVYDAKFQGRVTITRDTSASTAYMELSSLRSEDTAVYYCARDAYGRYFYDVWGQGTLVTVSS
Experimental: as §1, §2, §3

[6] = target: T6, ADI-70327; assay: SPR Carterra avidity, yeast anti-ID
T6 construct: anti-CD3 antibody made in CHO cells, captured by anti-human Fc
T6 sequence (VH, as listed by the source limits assumed, chain 1 of 2): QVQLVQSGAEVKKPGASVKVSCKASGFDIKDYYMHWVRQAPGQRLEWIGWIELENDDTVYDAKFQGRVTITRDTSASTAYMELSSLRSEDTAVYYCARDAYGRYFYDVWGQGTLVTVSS
Experimental: as §1, §2, §3

[7] = target: T7, ADI-70330; assay: SPR Carterra avidity, yeast anti-ID
T7 construct: anti-CD3 antibody made in CHO cells, captured by anti-human Fc
Experimental: as §1, §2, §3

[8] = target: T8, ADI-26906 IgG; assay: SPR Carterra avidity, yeast anti-ID
T8 construct: anti-CD3 IgG
T8 sequence (VH, as listed by the source limits assumed, chain 1 of 2): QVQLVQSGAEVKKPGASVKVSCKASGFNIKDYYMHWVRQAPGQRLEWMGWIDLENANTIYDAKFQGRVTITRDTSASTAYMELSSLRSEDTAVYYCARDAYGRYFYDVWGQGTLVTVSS
T8 sequence (VL, as listed by the source limits assumed, chain 2 of 2): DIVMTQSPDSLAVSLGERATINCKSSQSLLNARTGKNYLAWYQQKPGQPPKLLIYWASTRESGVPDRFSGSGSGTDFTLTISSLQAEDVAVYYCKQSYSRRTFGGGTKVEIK
Experimental: as §1, §2, §3

[9] = target: T9, ADI-67450; assay: SPR Carterra avidity, yeast anti-ID
T9 construct: anti-CD3 antibody made in CHO cells, captured by anti-human Fc
Experimental: as §1, §2, §3

[10] = target: T10, ADI-67445; assay: SPR Carterra avidity, yeast anti-ID
T10 construct: anti-CD3 antibody made in CHO cells, captured by anti-human Fc
T10 sequence (VH, as listed by the source limits assumed, chain 1 of 2): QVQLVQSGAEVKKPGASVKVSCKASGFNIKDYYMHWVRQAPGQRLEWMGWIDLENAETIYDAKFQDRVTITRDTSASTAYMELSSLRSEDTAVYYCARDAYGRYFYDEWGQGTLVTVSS
Experimental: as §1, §2, §3

[11] = target: T11, ADI-26909; assay: SPR Carterra avidity, yeast anti-ID
T11 construct: anti-CD3 antibody made in CHO cells, captured by anti-human Fc
Experimental: as §1, §2, §3

[12] = target: T12, ADI-26913 IgG; assay: SPR Carterra avidity, yeast anti-ID
T12 construct: anti-CD3 IgG
T12 sequence (VH, as listed by the source limits assumed, chain 1 of 2): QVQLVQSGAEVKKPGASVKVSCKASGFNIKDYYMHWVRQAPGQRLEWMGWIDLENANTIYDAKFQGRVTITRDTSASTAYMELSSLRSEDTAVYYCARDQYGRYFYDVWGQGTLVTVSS
Experimental: as §1, §2, §3

[13] = target: T13, ADI-26919; assay: SPR Carterra avidity, yeast anti-ID
T13 construct: anti-CD3 antibody made in CHO cells, captured by anti-human Fc
T13 sequence (VL, as listed by the source limits assumed, chain 2 of 2): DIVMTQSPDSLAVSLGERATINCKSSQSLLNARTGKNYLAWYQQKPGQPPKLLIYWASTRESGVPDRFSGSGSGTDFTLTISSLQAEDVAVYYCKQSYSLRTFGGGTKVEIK
Experimental: as §1, §2, §3

[14] = target: T14, ADI-26921 IgG; assay: SPR Carterra avidity, yeast anti-ID
T14 construct: anti-CD3 IgG
Experimental: as §1, §2, §3

[15] = target: T15, ADI-26916 IgG; assay: SPR Carterra avidity, yeast anti-ID
T15 construct: anti-CD3 IgG
Experimental: as §1, §2, §3

[16] = target: T16, ADI-26943; assay: SPR Carterra avidity, yeast anti-ID
T16 construct: anti-CD3 antibody made in CHO cells, captured by anti-human Fc
T16 sequence (VH, as listed by the source, chain 1 of 2): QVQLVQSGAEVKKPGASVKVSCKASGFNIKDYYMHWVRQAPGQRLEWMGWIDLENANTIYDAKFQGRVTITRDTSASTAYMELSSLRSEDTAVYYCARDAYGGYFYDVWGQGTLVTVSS
T16 sequence (VL, as listed by the source, chain 2 of 2): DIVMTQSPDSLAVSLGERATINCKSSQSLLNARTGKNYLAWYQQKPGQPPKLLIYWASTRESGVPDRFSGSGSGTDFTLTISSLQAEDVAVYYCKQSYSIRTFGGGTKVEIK
Experimental: as §1, §2, §3

[17] = target: T17, ADI-48576; assay: SPR Carterra avidity, yeast anti-ID
T17 construct: pH-dependent anti-CD3 antibody made in CHO cells
T17 sequence (VH, as listed by the source, chain 1 of 2): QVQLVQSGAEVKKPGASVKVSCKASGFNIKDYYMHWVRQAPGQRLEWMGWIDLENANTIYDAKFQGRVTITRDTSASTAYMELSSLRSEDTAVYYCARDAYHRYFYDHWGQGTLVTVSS
T17 sequence (VL, as listed by the source, chain 2 of 2): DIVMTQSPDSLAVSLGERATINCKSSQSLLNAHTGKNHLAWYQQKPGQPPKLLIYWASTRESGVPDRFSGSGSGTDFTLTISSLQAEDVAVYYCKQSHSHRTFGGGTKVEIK
Experimental: as §1, §2, §3

[18] = target: T18, ADI-48587; assay: SPR Carterra avidity, yeast anti-ID
T18 construct: pH-dependent anti-CD3 antibody made in CHO cells
Experimental: as §1, §2, §3

[19] = target: T19, ADI-48592; assay: SPR Carterra avidity, yeast anti-ID
T19 construct: pH-dependent anti-CD3 antibody made in CHO cells
T19 sequence (VH, as listed by the source, chain 1 of 2): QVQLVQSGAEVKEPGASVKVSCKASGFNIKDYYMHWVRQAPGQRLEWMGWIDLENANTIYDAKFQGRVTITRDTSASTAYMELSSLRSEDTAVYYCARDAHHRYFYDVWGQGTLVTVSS
T19 sequence (VL, as listed by the source, chain 2 of 2): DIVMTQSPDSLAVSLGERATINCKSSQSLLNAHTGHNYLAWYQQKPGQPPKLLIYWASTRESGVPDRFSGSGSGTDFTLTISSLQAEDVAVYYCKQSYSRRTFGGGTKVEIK
Experimental: as §1, §2, §3

[20] = target: T20, ADI-48650; assay: SPR Carterra avidity, yeast anti-ID
T20 construct: pH-dependent anti-CD3 antibody made in CHO cells
Experimental: as §1, §2, §3

[21] = target: T21, ADI-74965; assay: SPR Carterra avidity, yeast anti-ID
T21 construct: pH-dependent anti-CD3 antibody made in CHO cells
Experimental: as §1, §2, §3

[22] = target: T22, ADI-74966; assay: SPR Carterra avidity, yeast anti-ID
T22 construct: pH-dependent anti-CD3 antibody made in CHO cells
Experimental: as §1, §2, §3

[23] = target: T23, ADI-74967; assay: SPR Carterra avidity, yeast anti-ID
T23 construct: pH-dependent anti-CD3 antibody made in CHO cells
Experimental: as §1, §2, §3

[24] = target: T24, ADI-74968; assay: SPR Carterra avidity, yeast anti-ID
T24 construct: pH-dependent anti-CD3 antibody made in CHO cells
Experimental: as §1, §2, §3

[25] = target: T25, ADI-76357; assay: SPR Carterra avidity, yeast anti-ID
T25 construct: anti-CD3 antibody made in CHO cells, captured by anti-human Fc
T25 sequence (VH, as listed by the source, chain 1 of 2): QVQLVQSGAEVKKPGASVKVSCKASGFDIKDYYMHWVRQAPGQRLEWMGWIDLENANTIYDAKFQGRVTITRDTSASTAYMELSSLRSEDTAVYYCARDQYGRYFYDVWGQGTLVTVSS
Experimental: as §1, §2, §3

[26] = target: T26, ADI-76358; assay: SPR Carterra avidity, yeast anti-ID
T26 construct: anti-CD3 antibody made in CHO cells, captured by anti-human Fc
T26 sequence (VH, as listed by the source, chain 1 of 2): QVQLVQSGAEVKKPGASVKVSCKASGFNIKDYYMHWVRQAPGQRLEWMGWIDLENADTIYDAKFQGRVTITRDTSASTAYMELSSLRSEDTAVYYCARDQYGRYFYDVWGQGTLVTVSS
Experimental: as §1, §2, §3

[27] = target: T27, ADI-76359; assay: SPR Carterra avidity, yeast anti-ID
T27 construct: anti-CD3 antibody made in CHO cells, captured by anti-human Fc
T27 sequence (VH, as listed by the source, chain 1 of 2): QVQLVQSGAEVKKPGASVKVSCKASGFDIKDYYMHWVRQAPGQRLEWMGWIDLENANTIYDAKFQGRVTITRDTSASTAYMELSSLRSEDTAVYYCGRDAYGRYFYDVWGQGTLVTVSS
Experimental: as §1, §2, §3

[28] = target: T28, ADI-76360; assay: SPR Carterra avidity, yeast anti-ID
T28 construct: anti-CD3 antibody made in CHO cells, captured by anti-human Fc
Experimental: as §1, §2, §3

[29] = target: T29, ADI-76361; assay: SPR Carterra avidity, yeast anti-ID
T29 construct: anti-CD3 antibody made in CHO cells, captured by anti-human Fc
T29 sequence (VH, as listed by the source, chain 1 of 2): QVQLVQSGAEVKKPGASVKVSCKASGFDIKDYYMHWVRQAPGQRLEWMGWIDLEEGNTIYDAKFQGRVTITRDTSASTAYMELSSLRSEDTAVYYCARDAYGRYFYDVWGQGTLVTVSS
Experimental: as §1, §2, §3

[30] = target: T30, ADI-76362; assay: SPR Carterra avidity, yeast anti-ID
T30 construct: anti-CD3 antibody made in CHO cells, captured by anti-human Fc
Experimental: as §1, §2, §3

[31] = target: T31, CTL-62223; assay: SPR Carterra avidity, yeast anti-ID
T31 construct: also called mosunetuzumab
T31 sequence (VH, as listed by the source, chain 1 of 2): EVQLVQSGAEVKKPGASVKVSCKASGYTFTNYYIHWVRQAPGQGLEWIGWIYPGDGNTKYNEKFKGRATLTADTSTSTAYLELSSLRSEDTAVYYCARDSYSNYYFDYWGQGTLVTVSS
T31 sequence (VL, as listed by the source, chain 2 of 2): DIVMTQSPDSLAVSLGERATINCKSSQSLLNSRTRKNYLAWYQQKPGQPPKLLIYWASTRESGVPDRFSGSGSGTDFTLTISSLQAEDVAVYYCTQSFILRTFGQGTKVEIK
Experimental: as §1, §2, §3

[32] = target: T32, ADI-67447; assay: SPR Carterra avidity, yeast anti-ID, *koff limit
T32 construct: anti-CD3 antibody made in CHO cells, captured by anti-human Fc
T32 sequence (VH, as listed by the source limits assumed, chain 1 of 2): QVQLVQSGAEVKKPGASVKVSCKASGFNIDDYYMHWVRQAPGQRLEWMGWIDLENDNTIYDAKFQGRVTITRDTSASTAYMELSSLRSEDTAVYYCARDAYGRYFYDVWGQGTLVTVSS
Experimental: as §1, §2, §3

[33] = target: T33, ADI-26920 IgG; assay: SPR Carterra avidity, yeast anti-ID, *koff limit
T33 construct: anti-CD3 IgG
T33 sequence (VH, as listed by the source limits assumed, chain 1 of 2): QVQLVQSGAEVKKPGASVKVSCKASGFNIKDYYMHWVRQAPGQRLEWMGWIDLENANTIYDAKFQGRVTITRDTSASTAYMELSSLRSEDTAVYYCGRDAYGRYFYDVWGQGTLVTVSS
Experimental: as §1, §2, §3

[34] = target: T34, ADI-26924; assay: SPR Carterra avidity, yeast anti-ID, *koff limit
T34 construct: anti-CD3 antibody made in CHO cells, captured by anti-human Fc
T34 sequence (VH, as listed by the source, chain 1 of 2): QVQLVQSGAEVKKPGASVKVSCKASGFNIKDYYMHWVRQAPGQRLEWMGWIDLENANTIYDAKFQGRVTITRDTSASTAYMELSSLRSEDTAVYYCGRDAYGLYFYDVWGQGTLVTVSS
Experimental: as §1, §2, §3

[35] = target: T32, ADI-67447; assay: SPR Carterra avidity, yeast anti-ID
Experimental: as §1, §2, §3

[36] = target: T35, ADI-26912; assay: SPR Carterra avidity, yeast anti-ID
T35 construct: anti-CD3 antibody made in CHO cells, captured by anti-human Fc
Experimental: as §1, §2, §3

[37] = target: T34, ADI-26924; assay: SPR Carterra avidity, yeast anti-ID
Experimental: as §1, §2, §3

[38] = target: T36, ADI-26915; assay: SPR Carterra avidity, yeast anti-ID
T36 construct: anti-CD3 antibody made in CHO cells, captured by anti-human Fc
Experimental: as §1, §2, §3

[39] = target: T37, ADI-22523 Fab; assay: BLI; tip anti-ID IgG, solution ADI-22523 Fab
T37 construct: anti-CD3 Fab by papain digestion of the IgG
Experimental: (§4) ForteBio affinity measurements were performed generally as previously described (Estep et al., MAbs. 2013 5(2):270-8). Briefly, ForteBio affinity measurements were performed by loading antibody IgG or Fabs on-line onto AHC sensors. Sensors were equilibrated off-line in assay buffer for 30 minutes and then monitored on-line for 60 seconds for baseline establishment. For avid binding measurement, sensors with loaded antibodies were exposed to IgG or Fab solutions for 3 minutes, afterwards they were transferred to assay buffer for 3 minutes for off-rate measurement. Kinetics data were fit using a 1:1 binding model in the data analysis software provided by ForteBio to obtain equilibrium dissociation constant (KD=koff/kₒₙ) values. In each column, tip-immobilized antibodies are listed first and solution antibodies second.

[40] = target: T38, ADI-22523 IgG; assay: BLI; tip anti-ID IgG, solution ADI-22523 IgG
T38 construct: anti-CD3 IgG
Experimental: as §4

[41] = target: T4, ADI-50024; assay: SPR Carterra avidity, yeast anti-ID, *koff limit
Experimental: as §1, §2, §3

[42] = target: T8, ADI-26906 IgG; assay: SPR Carterra avidity, yeast anti-ID, *koff limit
Experimental: as §1, §2, §3

[43] = target: T13, ADI-26919; assay: SPR Carterra avidity, yeast anti-ID, *koff limit
Experimental: as §1, §2, §3

[44] = target: T14, ADI-26921 IgG; assay: SPR Carterra avidity, yeast anti-ID, *koff limit
Experimental: as §1, §2, §3

[45] = target: T16, ADI-26943; assay: SPR Carterra avidity, yeast anti-ID, *koff limit
Experimental: as §1, §2, §3

[46] = target: T27, ADI-76359; assay: SPR Carterra avidity, yeast anti-ID, *koff limit
Experimental: as §1, §2, §3

[47] = target: T29, ADI-76361; assay: SPR Carterra avidity, yeast anti-ID, *koff limit
Experimental: as §1, §2, §3

Row | Binder | Kd [5] | Kd [7] | Kd [9] | Kd [10] | Kd [11] | Kd [12] | Kd [15] | Kd [17] | Kd [18] | Kd [19] | Kd [22] | Kd [23] | Kd [24] | Kd [25] | Kd [26] | Kd [28] | Kd [30] | Kd [31] | Kd [33] | also measured
1 | B1 | 3.9 nM | 1.2 nM | 1.8 nM | 0.93 nM | 0.64 nM | 0.55 nM | 1.8 nM | 12 nM | 0.79 nM | 16 nM | 0.86 nM | 0.5 nM | 0.41 nM | 0.54 nM | 2.9 nM | 0.57 nM | 1.4 nM | 4.5 nM | 0.29 nM | binding result [1]: no binding (tested: up to 200 nM); binding result [2]: no binding (tested: up to 200 nM); binding result [3]: no binding (tested: up to 200 nM); Kd [4]: 1.1 nM; Kd [6]: 1.7 nM; Kd [8]: 0.63 nM; Kd [13]: 0.35 nM; Kd [14]: 0.24 nM; Kd [16]: 0.87 nM; Kd [20]: 3.3 nM; Kd [21]: 0.75 nM; Kd [27]: 0.39 nM; Kd [29]: 0.24 nM; Kd [32]: 0.35 nM; Kd [34]: 0.25 nM
2 | B2 | 4.1 nM | 0.47 nM | 0.63 nM | 0.34 nM | 0.1 nM | 0.1 nM | 0.14 nM | 31 nM | 1.8 nM | 19 nM | 0.35 nM | 0.21 nM | 0.83 nM | 0.097 nM | 1.1 nM | 0.15 nM | 0.41 nM | 1.2 nM | 0.11 nM | binding result [6]: binds; Kd [35]: 0.26 nM; binding result [36]: binds; Kd [37]: 0.14 nM; Kd [38]: 15 nM; binding result [20]: binds; binding result [21]: binds; Kd [39]: 7.81 nM; Kd [40]: 0.54 nM; Kd [41]: 0.17 nM; Kd [42]: 0.13 nM; Kd [43]: 0.082 nM; Kd [44]: 0.073 nM; Kd [45]: 0.099 nM; Kd [46]: 0.053 nM; Kd [47]: 0.044 nM
